Measured values taken from PMC7347456 (Structure (London, England : 1993), 2020).
Blank lines part the entries; values can stand above or below the binder they belong to. Ends that are not written are not given here.

Tests used:
[1] = molecular target: full-length human LRH-1 D314R (human, UniProt O00482 1-541, D314R); test: fluorescence polarisation
[2] = molecular target: full-length human LRH-1 S148R (human, UniProt O00482 1-541, S148R); test: fluorescence polarisation
[3] = molecular target: T1, full-length human LRH-1 (Liver Receptor Homolog-1; NR5A2), wild type (human, UniProt O00482 1-541); test: fluorescence polarisation
T1 sequence (O00482 whole entry): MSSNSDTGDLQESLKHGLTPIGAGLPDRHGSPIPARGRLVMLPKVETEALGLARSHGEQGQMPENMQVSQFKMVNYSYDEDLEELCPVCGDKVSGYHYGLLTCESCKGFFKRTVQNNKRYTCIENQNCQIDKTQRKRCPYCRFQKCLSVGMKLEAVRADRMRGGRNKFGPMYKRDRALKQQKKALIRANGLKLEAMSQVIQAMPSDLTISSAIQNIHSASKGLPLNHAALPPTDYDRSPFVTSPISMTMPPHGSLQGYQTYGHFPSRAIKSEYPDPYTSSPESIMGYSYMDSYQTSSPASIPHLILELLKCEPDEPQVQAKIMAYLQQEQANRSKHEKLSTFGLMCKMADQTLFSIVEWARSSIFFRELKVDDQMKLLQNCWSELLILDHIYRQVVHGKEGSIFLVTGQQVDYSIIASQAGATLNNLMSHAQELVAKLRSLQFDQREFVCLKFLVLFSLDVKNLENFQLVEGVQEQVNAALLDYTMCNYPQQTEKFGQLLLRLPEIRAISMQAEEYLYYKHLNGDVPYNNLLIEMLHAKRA

[4] = molecular target: full-length human LRH-1 R174D/D314R (human, UniProt O00482 1-541, R174D | D314R); test: fluorescence polarisation
full-length human LRH-1 R174D/D314R, sequence (O00482 whole entry R174D/D314R): as the sequence (O00482 whole entry) above, with R174D, D314R counted along it

[5] = molecular target: full-length human LRH-1 A324R (human, UniProt O00482 1-541, A324R); test: fluorescence polarisation
full-length human LRH-1 A324R, sequence (O00482 whole entry A324R): as the sequence (O00482 whole entry) above, with A324R counted along it

[6] = molecular target: T1, full-length human LRH-1 (Liver Receptor …); test: cross-linking

full-length human LRH-1 D314R, sequence (O00482 whole entry D314R): as the sequence (O00482 whole entry) above, with D314R counted along it
full-length human LRH-1 S148R, sequence (O00482 whole entry S148R): as the sequence (O00482 whole entry) above, with S148R counted along it

- Kd [1]: 2280 nM
- Kd [2]: 7030 nM
- Kd [3]: 1360 nM
- Kd [4]: 1720 nM
- Kd [5]: 1510 nM
B1: N-terminally FAM-labeled PGC1α co-regulator peptide (740-EEPSLLKKLLLAPA-753) (peptide)
peptide: {FAM}-EEPSLLKKLLLAPA

- binding result [6]: binds
B2: PGC1α co-activator peptide (740-EEPSLLKKLLLAPA-753), unlabeled (peptide)
peptide: EEPSLLKKLLLAPA
